Data set [1] is described as follows: limited trypsin digestion of plasma membranes ± α-factor, western blot. The conditions noted are these: glycan lost; control: epitope-tagged receptors with intact sites. For orientation: Immunoblotting shows a protein as a band on a membrane.
Data set [2] deals with T1, Ste2-F204S (S. cerevisiae) (UniProt D6VTK4).
T1 sequence: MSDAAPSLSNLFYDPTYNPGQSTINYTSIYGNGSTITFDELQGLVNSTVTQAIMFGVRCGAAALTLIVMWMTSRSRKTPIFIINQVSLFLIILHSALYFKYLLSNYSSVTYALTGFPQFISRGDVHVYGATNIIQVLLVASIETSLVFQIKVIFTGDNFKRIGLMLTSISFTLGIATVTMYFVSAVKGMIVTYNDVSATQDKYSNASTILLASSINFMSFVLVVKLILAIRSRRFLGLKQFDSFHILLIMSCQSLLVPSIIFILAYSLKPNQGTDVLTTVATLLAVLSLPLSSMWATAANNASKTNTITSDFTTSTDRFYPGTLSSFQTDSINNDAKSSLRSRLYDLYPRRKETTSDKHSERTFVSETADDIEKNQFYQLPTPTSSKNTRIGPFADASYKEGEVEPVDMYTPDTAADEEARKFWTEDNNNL

This is an account of results in PMC3988799.

B1: α-factor receptor (Ste2): T7-Ste2-N25Q,N32Q (protein)
parent chain: MSDAAPSLSNLFYDPTYNPGQSTINYTSIYGNGSTITFDELQGLVNSTVTQAIMFGVRCGAAALTLIVMWMTSRSRKTPIFIINQVSLFLIILHSALYFKYLLSNYSSVTYALTGFPQFISRGDVHVYGATNIIQVLLVASIETSLVFQIKVIFTGDNFKRIGLMLTSISFTLGIATVTMYFVSAVKGMIVTYNDVSATQDKYFNASTILLASSINFMSFVLVVKLILAIRSRRFLGLKQFDSFHILLIMSCQSLLVPSIIFILAYSLKPNQGTDVLTTVATLLAVLSLPLSSMWATAANNASKTNTITSDFTTSTDRFYPGTLSSFQTDSINNDAKSSLRSRLYDLYPRRKETTSDKHSERTFVSETADDIEKNQFYQLPTPTSSKNTRIGPFADASYKEGEVEPVDMYTPDTAADEEARKFWTEDNNNL
Regarding B1, the structure_or_conformation result in data set [1] is on record as “no change”.

B2: Ste2-T326-GFP (receptor)
chain: MSDAAPSLSNLFYDPTYNPGQSTINYTSIYGNGSTITFDELQGLVNSTVTQAIMFGVRCGAAALTLIVMWMTSRSRKTPIFIINQVSLFLIILHSALYFKYLLSNYSSVTYALTGFPQFISRGDVHVYGATNIIQVLLVASIETSLVFQIKVIFTGDNFKRIGLMLTSISFTLGIATVTMYFVSAVKGMIVTYNDVSATQDKYFNASTILLASSINFMSFVLVVKLILAIRSRRFLGLKQFDSFHILLIMSCQSLLVPSIIFILAYSLKPNQGTDVLTTVATLLAVLSLPLSSMWATAANNASKTNTITSDFTTSTDRFYPGTLSS
Molecule B2 showed an endocytosis complementation assay: percent of co-expressing cells with one or more GFP fluorescent foci after α-factor treatment (fluorescence microscopy) in data set [2] greater than 80%.
